Residue numbers refer to the chain shown, from its start. Names and notes keep the numbering of the source.
B1: Plasmodium falciparum M17 aminopeptidase PfA-M17 (residues 84-605), wild type (enzyme, UniProt Q8IL11 84-605, looked up)
chain: MASEVPQVVSLDPTSIPIEYNTPIHDIKVQVYDIKGGCNVEEGLTIFLVNNPGKENGPVKISSKVNDKNVSEFLKDENMEKFNVKLGTSKHFYMFNDNKNSVAVGYVGCGSVADLSEADMKRVVLSLVTMLHDNKLSKLTVVFEINVDKNLFRFFLETLFYEYMTDERFKSTDKNVNMEYIKHLGVYINNADTYKEEVEKARVYYFGTYYASQLIAAPSNYCNPVSLSNAAVELAQKLNLEYKILGVKELEELKMGAYLSVGKGSMYPNKFIHLTYKSKGDVKKKIALVGKGITFDSGGYNLKAAPGSMIDLMKFDMSGCAAVLGCAYCVGTLKPENVEIHFLSAVCENMVSKNSYRPGDIITASNGKTIEVGNTDAEGRLTLADALVYAEKLGVDYIVDIATLTGAMLYSLGTSYAGVFGNNEELINKILNSSKTSNEPVWWLPIINEYRATLNSKYADINNISSSVKASSIVASLFLKEFVQNTAWAHIDIAGVSWNFKARKPKGFGVRLLTEFVLNDAL
notes: M17 leucyl aminopeptidase of Plasmodium falciparum, residues 84-605; residues 1-83 (asparagine-rich low complexity region) omitted; In solution a metal-dependent equilibrium of monomer, dimer, tetramer and hexamer; also called PfLAP; PfA-M17 WT; source: E. coli BL21 DE3, purified (Ni-NTA, SEC)
B2: PfA-M17 (D379A + E461L) (enzyme)
chain: B1 chain with D296A, E378L
notes: also called PfA-M17(AL); PfA-M17 (AL); source: E. coli BL21 DE3, purified (Ni-NTA, SEC)
B3: Plasmodium vivax M17 aminopeptidase Pv-M17 (residues 73-621), wild type (enzyme, UniProt A5K3U9 73-621, looked up)
chain: MATTVPQVVSLDPTTIPIDYHTPIDDLSIEVKDISAEACPADEGLIVFLLNSAPKHSSSGGSGGNGGSAGSSGNGEGGAQIKINSSVKDNTINEFLKEGNMENFTGKLGTSKSFYIANDQKKYVSLAYVGCGPANEETELEIRKVAYALVTLLHDSKHKKVSIIFEIKIEEALFRFFLEHLFYEYVTDERFKSADKSTETDFIKNLSLHIANADAYKGQIDKARVYFYGTYYAAQLIAAPSNYCNPVSLSNAAVELAQKVNLECKILDVKELEELKMGAYLSVGKGSMYPNKFIHLTYKGAQTGASQNEKKKIALIGKGITFDSGGYNLKAAPGSMIDLMKFDMSGCAAVLGCAYCIGTIKPDNVEVHFLSAVCENMVSKNSYRPGDIITASNGKTIEVGNTDAEGRLTLADALVYAEKLGVDYIVDIATLTGAMLYSLGTSYAGVFGNNDQLINKILSSSKTSNEPVWWLPIINEYRSSLNSKYADLNNISSSVKASSVVASLFLKEFIENTPWAHIDIAGVSWNFKARKPKGFGVRLLTEFVLNDAV
notes: M17 leucyl aminopeptidase of Plasmodium vivax, residues 73-621; N-terminal truncation of 72 residues; it is residues 73-621; Synthetic gene (DNA 2.0) in pJ404; also called PvLAP; Pv-M17 WT; source: E. coli BL21 DE3, purified (Ni-NTA, SEC)
B4: Pv-M17 (D395A and E477L) (enzyme)
chain: B3 chain with D323A, E405L
notes: also called Pv-M17(AL); Pv-M17 (AL); source: E. coli BL21 DE3, purified (Ni-NTA, SEC)
B5: Pv-M17Δ125-151 (enzyme)
chain: MATTVPQVVSLDPTTIPIDYHTPIDDLSIEVKDISAEACPADEGLIVFLLNSQIKINSSVKDNTINEFLKEGNMENFTGKLGTSKSFYIANDQKKYVSLAYVGCGPANEETELEIRKVAYALVTLLHDSKHKKVSIIFEIKIEEALFRFFLEHLFYEYVTDERFKSADKSTETDFIKNLSLHIANADAYKGQIDKARVYFYGTYYAAQLIAAPSNYCNPVSLSNAAVELAQKVNLECKILDVKELEELKMGAYLSVGKGSMYPNKFIHLTYKGAQTGASQNEKKKIALIGKGITFDSGGYNLKAAPGSMIDLMKFDMSGCAAVLGCAYCIGTIKPDNVEVHFLSAVCENMVSKNSYRPGDIITASNGKTIEVGNTDAEGRLTLADALVYAEKLGVDYIVDIATLTGAMLYSLGTSYAGVFGNNDQLINKILSSSKTSNEPVWWLPIINEYRSSLNSKYADLNNISSSVKASSVVASLFLKEFIENTPWAHIDIAGVSWNFKARKPKGFGVRLLTEFVLNDAV
notes: also called Pv-M17 N-terminal loop deletion mutant; source: E. coli BL21 DE3, purified (Ni-NTA, SEC)

Legend:
[1] = target: the molecule itself; assay: AUC; sedimentation velocity, 0.5 mg/ml, 20 °C, 40,000 rpm, 50 mM HEPES pH 8.0, 0.3 M NaCl, no metal added
[2] = target: the molecule itself; assay: SEC-MALS; 100 μl samples at 3 mg/ml, Superdex S200 Increase 10/300 GL, 50 mM HEPES pH 8.0, 0.3 M NaCl, no metal added
[3] = target: the molecule itself; assay: SEC; in the presence of 100 mM EDTA
[4] = target: the molecule itself; assay: AUC; sedimentation velocity, 0.5 mg/ml, 20 °C, 50 mM HEPES pH 8.0, 0.3 M NaCl with 50 μM MnCl2
[5] = target: the molecule itself; assay: crystal structure; 0.1 M HEPES pH 6.5, 15% PEG 3350, 0.15 M (NH4)2SO4; two hexamers in the asymmetric unit

Protein | stoichiometry N [2] | binding result [1] | also measured
B1 | 6 | – | stoichiometry N [1]: 2
B2 | – | binds | –
B3 | 2 | – | stoichiometry N [3]: 4; stoichiometry N [4]: 6
B4 | – | binds | –
B5 | – | – | stoichiometry N [5]: 6

From publication PMC7948507, “Active site metals mediate an oligomeric equilibrium in Plasmodium M17 aminopeptidases” (The Journal of Biological Chemistry, 2020)
